Numbering of substitutions follows the chain as printed.
Legend:
[1] = test system: T1, (KLTCLASYCWLF)2═N-O-(CH2)3-O-N═
T1 sequence: KLTCLASYCWLF

AQLRRKLTCLASYCWLFGFFSP = test system: T2, AQLRRKLTCLASYCWLFGFFSP
T2 sequence: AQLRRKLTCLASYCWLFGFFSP

ARAPGKLQCLASYCWLFWTGIA = test system: T3, ARAPGKLQCLASYCWLFWTGIA
T3 sequence: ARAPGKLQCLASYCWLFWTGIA

Ac-KLTCLASYCWLF = test system: T4, Ac-KLTCLASYCWLF
T4 sequence: KLTCLASYCWLF

[2] = test system: T5, CGGSGGRRAPGKLQCLASYCWLFWTGIAC
T5 sequence: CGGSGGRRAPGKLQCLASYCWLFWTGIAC

Dab-LTCLASYCWLF = test system: T6, Dab-LTCLASYCWLF
T6 sequence: XLTCLASYCWLF

HQQRRKLTCLAGYCWLFVLGPS = test system: T7, HQQRRKLTCLAGYCWLFVLGPS
T7 sequence: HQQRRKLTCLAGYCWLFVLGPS

K-k-MeLeu-TCLASYCWLF = test system: T8, K-k-MeLeu-TCLASYCWLF
T8 sequence: KKLTCLASYCWLF

KLTCAASYCWLF = test system: T9, KLTCAASYCWLF
T9 sequence: KLTCAASYCWLF

KLTCLASYCQLF = test system: T10, KLTCLASYCQLF
T10 sequence: KLTCLASYCQLF

KLTCLASYCWLA = test system: T11, KLTCLASYCWLA
T11 sequence: KLTCLASYCWLA

KLTCLASYCwLF [3] = test system: T12, KLTCLASYCwLF
T12 sequence: KLTCLASYCWLF

KLTCLATYCWLF = test system: T13, KLTCLATYCWLF
T13 sequence: KLTCLATYCWLF

KLTCLAsYCWLF [4] = test system: T14, KLTCLAsYCWLF
T14 sequence: KLTCLASYCWLF

KLTCLVSYCWLF = test system: T15, KLTCLVSYCWLF
T15 sequence: KLTCLVSYCWLF

KLTCQASYCWLF = test system: T16, KLTCQASYCWLF
T16 sequence: KLTCQASYCWLF

KLtCLASYCWLF [5] = test system: T17, KLtCLASYCWLF
T17 sequence: KLTCLASYCWLF

KRAPGKLQCLASYCWLFWTGIA = test system: T18, KRAPGKLQCLASYCWLFWTGIA
T18 sequence: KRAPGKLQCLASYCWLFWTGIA

[6] = test system: T19, NGALGFRSVV PRAAG KLTCLASYCWLFWTGIA
T19 sequence: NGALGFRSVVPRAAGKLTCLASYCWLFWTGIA

[7] = test system: T20, PRIRTVGPGSRSASGKLTCLASYCWLAWTGIA
T20 sequence: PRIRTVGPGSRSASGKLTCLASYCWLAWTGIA

[8] = test system: T21, PRIRTVGPGSRSASGKLTCLASYCWLFWTGI
T21 sequence: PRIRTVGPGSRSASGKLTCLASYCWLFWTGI

[9] = test system: T22, PRSRTVGPGSRSASGKLTCLASYCWLFWTGIA
T22 sequence: T20 sequence with I3S, A27F

[10] = test system: T23, PRTTANRRSS RRAPA KLTCLASYCWLFWTGIA
T23 sequence: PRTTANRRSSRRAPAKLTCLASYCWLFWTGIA

[11] = test system: T24, PTDTGPVISG LRAPG KLTCLASYCWLFWTGIA
T24 sequence: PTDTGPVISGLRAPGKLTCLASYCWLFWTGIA

QAKMLKLTCLASYCWLFWVTRS = test system: T25, QAKMLKLTCLASYCWLFWVTRS
T25 sequence: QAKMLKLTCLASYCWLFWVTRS

[12] = test system: T26, R-MeArg-APGKLTCLASYCWLFWTGIA
T26 sequence: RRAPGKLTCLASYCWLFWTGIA

[13] = test system: T27, RRAP-Sar-KLTCLASYCWLFWTGIA
T27 sequence: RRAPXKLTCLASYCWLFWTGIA

RRAPAKLQCLASYCWLFWTGIA = test system: T28, RRAPAKLQCLASYCWLFWTGIA
T28 sequence: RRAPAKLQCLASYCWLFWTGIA

[14] = test system: T29, RRAPGK-MeLeu-TCLASYCWLFWTGIA
T29 sequence: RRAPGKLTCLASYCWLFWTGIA

[15] = test system: T30, RRAPGKCTALASYAWCFWTGIA-CONH2
T30 sequence: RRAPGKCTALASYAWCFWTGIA

[16] = test system: T31, RRAPGKLCALASYACLFWTGIA-COOH
T31 sequence: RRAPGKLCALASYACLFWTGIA

RRAPGKLQCLASYCWLFATAIA = test system: T32, RRAPGKLQCLASYCWLFATAIA
T32 sequence: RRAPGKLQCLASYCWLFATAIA

[17] = test system: T33, RRAPGKLQCLASYCWLFWTG-(1-Nal)-A
T33 sequence: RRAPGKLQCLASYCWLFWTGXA

RRAPGKLQCLASYCWLFWTG = test system: T34, RRAPGKLQCLASYCWLFWTG
T34 sequence: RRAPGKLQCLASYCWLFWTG

RRAPGKLQCLASYCWLFWTKIA = test system: T35, RRAPGKLQCLASYCWLFWTKIA
T35 sequence: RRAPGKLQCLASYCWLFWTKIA

[18] = test system: T36, RRAPGKLT-Asp-LASY-Orn-WLFWTGIA-COOH
T36 sequence: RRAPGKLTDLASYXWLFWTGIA

[19] = test system: T37, RRAPGKLT-Lys-LASY-Glu-WLFWTGIA-CONH2
T37 sequence: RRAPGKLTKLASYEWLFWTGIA

[20] = test system: T38, RRAPGKLTCLASYCWLF GSGIS LSRAPESAAP
T38 sequence: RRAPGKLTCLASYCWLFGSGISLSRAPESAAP

[21] = test system: T39, RRAPGKLTCLASYCWLF WTGIA RWPSHRSGPS
T39 sequence: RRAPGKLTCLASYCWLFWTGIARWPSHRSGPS

[22] = test system: T40, RRAPGKLTCLASYCWLF WTGLS RYQWQAQEDV
T40 sequence: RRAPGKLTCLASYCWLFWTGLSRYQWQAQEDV

[23] = test system: T41, RRAPGKLTCLASYCWLFWTGK(PEG2-Biotin)A
T41 sequence: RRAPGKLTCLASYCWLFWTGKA

RRAPGKLTCLASYCWLfWTGIA [24] = test system: T42, RRAPGKLTCLASYCWLfWTGIA
T42 sequence: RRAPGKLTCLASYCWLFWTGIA

RRAPGKLtCLASYCWLFWTGIA [25] = test system: T43, RRAPGKLtCLASYCWLFWTGIA
T43 sequence: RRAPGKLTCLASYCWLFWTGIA

RSQGRKLTCLASYCWLFLVVHR = test system: T44, RSQGRKLTCLASYCWLFLVVHR
T44 sequence: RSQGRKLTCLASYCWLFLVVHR

SGRGGKLTCQASFCQLFGNGLS = test system: T45, SGRGGKLTCQASFCQLFGNGLS
T45 sequence: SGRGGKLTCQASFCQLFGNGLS

[26] = test system: T46, SLISMTNPSG RRVPG KLTCLASYCWLFWTGIA
T46 sequence: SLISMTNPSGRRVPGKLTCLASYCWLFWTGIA

TGS-KLTCLASYCWLF-APG = test system: T47, TGS-KLTCLASYCWLF-APG
T47 sequence: TGSKLTCLASYCWLFAPG

VSGTGRLTCVASYCWMFQLGSF = test system: T48, VSGTGRLTCVASYCWMFQLGSF
T48 sequence: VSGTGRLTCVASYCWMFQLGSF

compound 22 = test system: T49, compound 22
T49 sequence: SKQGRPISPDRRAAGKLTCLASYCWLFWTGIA

[27] = test system: T50, rRAPGKLTCLASYCWLFWTGIA-COOH
T50 sequence: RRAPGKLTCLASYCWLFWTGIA

[28] = test system: T51, rRAPGKLTCLASYCWLFWTGIA-PEG16-Lys(PEG2-Biotin)-PEG16
T51 sequence: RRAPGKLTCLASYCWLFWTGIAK

rRASGKLTCLASYCWLFWTGIA = test system: T52, rRASGKLTCLASYCWLFWTGIA
T52 sequence: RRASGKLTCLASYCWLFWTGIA

## human Factor IXa
[1]
  Vmax, FXa generation assay: > 3
AQLRRKLTCLASYCWLFGFFSP
  Vmax, FXa generation assay; (++) means 1-2: (++)
ARAPGKLQCLASYCWLFWTGIA
  Vmax, FXa generation assay: > 2
Ac-KLTCLASYCWLF
  Vmax, FXa generation assay; (++) means 1-2: (++)
[2]
  Vmax, FXa generation assay; (++) means 1-2: (++)
Dab-LTCLASYCWLF
  Vmax, FXa generation assay; (++) means 1-2: (++)
HQQRRKLTCLAGYCWLFVLGPS
  Vmax, FXa generation assay: > 2
K-k-MeLeu-TCLASYCWLF
  Vmax, FXa generation assay: > 3
KLTCAASYCWLF
  Vmax, FXa generation assay; (++) means 1-2: (++)
KLTCLASYCQLF
  Vmax, FXa generation assay: > 3
KLTCLASYCWLA
  Vmax, FXa generation assay: > 3
KLTCLASYCwLF [3]
  Vmax, FXa generation assay: > 3
KLTCLATYCWLF
  Vmax, FXa generation assay; (++) means 1-2: (++)
KLTCLAsYCWLF [4]
  Vmax, FXa generation assay: > 2
KLTCLVSYCWLF
  Vmax, FXa generation assay: > 2
KLTCQASYCWLF
  Vmax, FXa generation assay; (++) means 1-2: (++)
KLtCLASYCWLF [5]
  Vmax, FXa generation assay: > 2
KRAPGKLQCLASYCWLFWTGIA
  Vmax, FXa generation assay: > 2
[6]
  Vmax, FXa generation assay: > 2
[7]
  Vmax, FXa generation assay: > 3
[8]
  Vmax, FXa generation assay: > 3
[9]
  Vmax, FXa generation assay: > 3
[10]
  Vmax, FXa generation assay: > 3
[11]
  Vmax, FXa generation assay; (++) means 1-2: (++)
QAKMLKLTCLASYCWLFWVTRS
  Vmax, FXa generation assay: > 2
[12]
  Vmax, FXa generation assay; (++) means 1-2: (++)
[13]
  Vmax, FXa generation assay: > 2
RRAPAKLQCLASYCWLFWTGIA
  Vmax, FXa generation assay: > 2
[14]
  Vmax, FXa generation assay; (++) means 1-2: (++)
[15]
  Vmax, FXa generation assay; (++) means 1-2: (++)
[16]
  Vmax, FXa generation assay: > 0.3
RRAPGKLQCLASYCWLFATAIA
  Vmax, FXa generation assay: > 3
[17]
  Vmax, FXa generation assay: > 2
RRAPGKLQCLASYCWLFWTG
  Vmax, FXa generation assay: > 2
RRAPGKLQCLASYCWLFWTKIA
  Vmax, FXa generation assay; (++) means 1-2: (++)
[18]
  Vmax, FXa generation assay; (++) means 1-2: (++)
[19]
  Vmax, FXa generation assay; (++) means 1-2: (++)
[20]
  Vmax, FXa generation assay: > 3
[21]
  Vmax, FXa generation assay; (++) means 1-2: (++)
[22]
  Vmax, FXa generation assay: > 2
[23]
  Vmax, FXa generation assay; (++) means 1-2: (++)
RRAPGKLTCLASYCWLfWTGIA [24]
  Vmax, FXa generation assay; (++) means 1-2: (++)
RRAPGKLtCLASYCWLFWTGIA [25]
  Vmax, FXa generation assay; (++) means 1-2: (++)
RSQGRKLTCLASYCWLFLVVHR
  Vmax, FXa generation assay; (++) means 1-2: (++)
SGRGGKLTCQASFCQLFGNGLS
  Vmax, FXa generation assay; (++) means 1-2: (++)
[26]
  Vmax, FXa generation assay: > 2
TGS-KLTCLASYCWLF-APG
  Vmax, FXa generation assay: > 2
VSGTGRLTCVASYCWMFQLGSF
  Vmax, FXa generation assay; (++) means 1-2: (++)
Compound 22
  Vmax, FXa generation assay with hFIXa: > 3
[27]
  Vmax, FXa generation assay: > 2
[28]
  Vmax, FXa generation assay: > 3
rRASGKLTCLASYCWLFWTGIA
  Vmax, FXa generation assay; (++) means 1-2: (++)

From patent publication US20140303084
